According to patent US5928893:

Key:
[1] = target: human 4-1BB on T cells (human) (UniProt Q07011)
[2] = target: human 4-1BB on T cells (human) (UniProt Q07011); assay: flow cytometry, normal (non-activated) human CD4+ T cells
[3] = target: human 4-1BB on T cells (human) (UniProt Q07011); assay: flow cytometry, normal (non-activated) human CD8+ T cells
[4] = target: human 4-1BB on T cells (human) (UniProt Q07011); assay: flow cytometry, PBL CD4+ T cells, rheumatoid arthritis patient 2
[5] = target: human 4-1BB on T cells (human) (UniProt Q07011); assay: flow cytometry, PBL CD8+ T cells, rheumatoid arthritis patient 2
[6] = target: human 4-1BB on T cells (human) (UniProt Q07011); assay: flow cytometry, human CD4+ T cells activated with Con A for 24 hours
[7] = target: human 4-1BB on T cells (human) (UniProt Q07011); assay: flow cytometry, human CD8+ T cells activated with Con A for 24 hours
[8] = target: human 4-1BB on T cells (human) (UniProt Q07011); assay: flow cytometry, PBL CD4+ T cells, rheumatoid arthritis patient
[9] = target: human 4-1BB on T cells (human) (UniProt Q07011); assay: flow cytometry, PBL CD8+ T cells, rheumatoid arthritis patient
[10] = target: human 4-1BB on T cells (human) (UniProt Q07011); assay: flow cytometry, synovial lymphocyte CD4+ T cells, rheumatoid arthritis patient 2
[11] = target: human 4-1BB on T cells (human) (UniProt Q07011); assay: flow cytometry, synovial lymphocyte CD8+ T cells, rheumatoid arthritis patient 2
[12] = target: human 4-1BB on T cells (human) (UniProt Q07011); assay: flow cytometry, synovial lymphocyte CD4+ T cells, rheumatoid arthritis patient
[13] = target: human 4-1BB on T cells (human) (UniProt Q07011); assay: flow cytometry, synovial lymphocyte CD8+ T cells, rheumatoid arthritis patient

Substance: monoclonal antibody 4B4-1-1
- suppression rate (%) of one way-allogeneic mixed lymphocyte reaction (3H-thymidine uptake) [1]: 67%
- % of CD4+ T cells showing positive responses [2]: 17%
- % of CD8+ T cells showing positive responses [3]: 36%
- % of T Cells Showing Reactivity with 4B4-1-1 [4]: 20%
- % of T Cells Showing Reactivity with 4B4-1-1 [5]: 43.5%
- % of CD4+ T cells showing positive responses [6]: 72%
- % of CD8+ T cells showing positive responses [7]: 89%
- % of T Cells Showing Reactivity with 4B4-1-1 [8]: 2.2%
- % of T Cells Showing Reactivity with 4B4-1-1 [9]: 12.7%
- % of T Cells Showing Reactivity with 4B4-1-1 [10]: 38%
- % of T Cells Showing Reactivity with 4B4-1-1 [11]: 42.4%
- % of T Cells Showing Reactivity with 4B4-1-1 [12]: 11.3%
- % of T Cells Showing Reactivity with 4B4-1-1 [13]: 68.1%
